According to publication doi:10.1101/2024.10.02.616342:

Biological target: mNG-BCR-ABL (biotinylated Avitag-linker-mNeon Green-linker-p210 BCR-ABL, full length) (human) (UniProt P00519)
Experiment: single-molecule TIRF pull-down

mNG-BCR-ABL (biotinylated Avitag-linker-mNeon Green-linker-p210 BCR-ABL, full length) (from UniProt P00519-1 28-1130)
percent dimeric: 55%
percent monomeric: 40%
percent tetramer: 5%
stoichiometry N: 2
